Data reported in patent US20170015742A1 (published 2017).
Changes are numbered by the printed parent chain. Numbers in names are those of the source.

T1: recombinant cynomolgus PDGF-BB (cynomolgus monkey, UniProt P01127 82-190 (human entry), limits assumed)
T1 chain: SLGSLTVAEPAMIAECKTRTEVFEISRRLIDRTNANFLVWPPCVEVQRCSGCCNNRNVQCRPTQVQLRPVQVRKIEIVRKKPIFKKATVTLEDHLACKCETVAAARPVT

B1: 4G8.3-GS-9E8.4 (g) anti-VEGF-A/anti-PDGF-BB DVD-Ig (PR-1572102) (bispecific antibody, human IgG1, kappa, L234A L235A)
heavy: EVQLVQSGSELKKPGASVKVSCKASGYTFTNYGMYWVRQAPGQGLEWMGWINTETGKPTYADDFKGRFVFSLDTSVSTAYLQISSLKAEDTAVYYCARTNYYYRSYIFYFDYWGQGTMVTVSSGGGGSGGGGSEVTLRESGPALVKPTQTLTLTCTFSGFSLSTYGMGVGWIRQPPGKALEWLANIWWDDDKYYNPSLKNRLTISKDTSKNQVVLTMTNMDPVDTATYYCARIESIGTTYSFDYWGQGTMVTVSSASTKGPSVFPLAPSSKSTSGGTAALGCLVKDYFPEPVTVSWNSGALTSGVHTFPAVLQSSGLYSLSSVVTVPSSSLGTQTYICNVNHKPSNTKVDKKVEPKSCDKTHTCPPCPAPEAAGGPSVFLFPPKPKDTLMISRTPEVTCVVVDVSHEDPEVKFNWYVDGVEVHNAKTKPREEQYNSTYRVVSVLTVLHQDWLNGKEYKCKVSNKALPAPIEKTISKAKGQPREPQVYTLPPSREEMTKNQVSLTCLVKGFYPSDIAVEWESNGQPENNYKTTPPVLDSDGSFFLYSKLTVDKSRWQQGNVFSCSVMHEALHNAYTQKSLSLSPGK
light: DTVLTQSPATLSLSPGERATLSCRASESVSTHMHWYQQKPGQAPRLLIYGASNLESGVPARFSGSGSGTDFTLTISSLEPEDFAVYFCQQSWNDPFTFGQGTKLEIKRGGSGGGGSGEFVLTQSPGTLSLSPGERATLSCERSSGDIGDSYVSWYQQKPGQAPRLVIYADDQRPSGIPDRFSGSGSGTDFTLTISRLEPEDFAVYYCQSYDINIDIVFGGGTKVEIKRTVAAPSVFIFPPSDEQLKSGTASVVCLLNNFYPREAKVQWKVDNALQSGNSQESVTEQDSKDSTYSLSSTLTLSKADYEKHKVYACEVTHQGLSSPVTKSFNRGEC
B2: hVEGF 4G8.3-GS-hPDGF 9E8.4 [hu IgG1/k] mut(234, 235) H435A (PR-1569574) (bispecific antibody)
heavy: B1 heavy
light: B1 light with R228G
B3: 4G8.3-SL-9E8.4 (g) anti-VEGF-A/anti-PDGF-BB DVD-Ig (PR-1572105) (bispecific antibody, human IgG1, kappa, L234A L235A)
heavy: EVQLVQSGSELKKPGASVKVSCKASGYTFTNYGMYWVRQAPGQGLEWMGWINTETGKPTYADDFKGRFVFSLDTSVSTAYLQISSLKAEDTAVYYCARTNYYYRSYIFYFDYWGQGTMVTVSSASTKGPEVTLRESGPALVKPTQTLTLTCTFSGFSLSTYGMGVGWIRQPPGKALEWLANIWWDDDKYYNPSLKNRLTISKDTSKNQVVLTMTNMDPVDTATYYCARIESIGTTYSFDYWGQGTMVTVSSASTKGPSVFPLAPSSKSTSGGTAALGCLVKDYFPEPVTVSWNSGALTSGVHTFPAVLQSSGLYSLSSVVTVPSSSLGTQTYICNVNHKPSNTKVDKKVEPKSCDKTHTCPPCPAPEAAGGPSVFLFPPKPKDTLMISRTPEVTCVVVDVSHEDPEVKFNWYVDGVEVHNAKTKPREEQYNSTYRVVSVLTVLHQDWLNGKEYKCKVSNKALPAPIEKTISKAKGQPREPQVYTLPPSREEMTKNQVSLTCLVKGFYPSDIAVEWESNGQPENNYKTTPPVLDSDGSFFLYSKLTVDKSRWQQGNVFSCSVMHEALHNAYTQKSLSLSPGK
light: DTVLTQSPATLSLSPGERATLSCRASESVSTHMHWYQQKPGQAPRLLIYGASNLESGVPARFSGSGSGTDFTLTISSLEPEDFAVYFCQQSWNDPFTFGQGTKLEIKRTVAAPSVFIFPPEFVLTQSPGTLSLSPGERATLSCERSSGDIGDSYVSWYQQKPGQAPRLVIYADDQRPSGIPDRFSGSGSGTDFTLTISRLEPEDFAVYYCQSYDINIDIVFGGGTKVEIKRTVAAPSVFIFPPSDEQLKSGTASVVCLLNNFYPREAKVQWKVDNALQSGNSQESVTEQDSKDSTYSLSSTLTLSKADYEKHKVYACEVTHQGLSSPVTKSFNRGEC
B4: hVEGF 4G8.3-SL-hPDGF 9E8.4 [hu IgG1/k] mut(234, 235) H435A (PR-1569579) (bispecific antibody)
heavy: B3 heavy
light: B3 light with R231G
B5: 9E10.1_GS_CL-33675 anti-VEGF-A/anti-PDGF-BB DVD-Ig (PR-1610561) (bispecific antibody, human IgG1, kappa, L234A L235A)
heavy: EIQLVQSGSELKKPGASVKVSCKASGYTFTNYGMYWVKQAPGQGLEYMGWIDTETGRPTYADDFKGRFVFSLDTSVSTAYLQISSLKAEDTAVYFCARWSGDTTGIRGPWFAYWGQGTLVTVSSGGGGSGGGGSEVTLRESGPALVKPTQTLTLTCTFSGFSLSTYGMGVGWIRQPPGKALEWLANIWWDDDKYYNPSLKNRLTISKDTSKNQVVLTMTNMDPVDTATYYCARIESSGPKYSFDYWGQGTMVTVSSASTKGPSVFPLAPSSKSTSGGTAALGCLVKDYFPEPVTVSWNSGALTSGVHTFPAVLQSSGLYSLSSVVTVPSSSLGTQTYICNVNHKPSNTKVDKKVEPKSCDKTHTCPPCPAPEAAGGPSVFLFPPKPKDTLMISRTPEVTCVVVDVSHEDPEVKFNWYVDGVEVHNAKTKPREEQYNSTYRVVSVLTVLHQDWLNGKEYKCKVSNKALPAPIEKTISKAKGQPREPQVYTLPPSREEMTKNQVSLTCLVKGFYPSDIAVEWESNGQPENNYKTTPPVLDSDGSFFLYSKLTVDKSRWQQGNVFSCSVMHEALHNAYTQKSLSLSPGK
light: DIRMTQSPSSLSASVGDRVTIECLASEDIYSDLAWYQQKPGKSPKLLIYNANGLQNGVPSRFSGSGSGTDYSLTISSLQPEDVATYFCQQYNYFPGTFGQGTKLEIKGGSGGGGSGGEIVLTQSPGTLSLSPGERATLSCRASSGSIWYSFVSWYQQKPGQAPRLLIYADDQRASGIPDRFSGSGSGTDFTLTISRLEPEDFAVYYCQSYGINIDVVFGGGTKVEIKRTVAAPSVFIFPPSDEQLKSGTASVVCLLNNFYPREAKVQWKVDNALQSGNSQESVTEQDSKDSTYSLSSTLTLSKADYEKHKVYACEVTHQGLSSPVTKSFNRGEC
B6: 4G8.3-GS-9E8.4 DVD-Ig (PR-1564010) (bispecific antibody, human IgG1, kappa, L234A L235A)
heavy: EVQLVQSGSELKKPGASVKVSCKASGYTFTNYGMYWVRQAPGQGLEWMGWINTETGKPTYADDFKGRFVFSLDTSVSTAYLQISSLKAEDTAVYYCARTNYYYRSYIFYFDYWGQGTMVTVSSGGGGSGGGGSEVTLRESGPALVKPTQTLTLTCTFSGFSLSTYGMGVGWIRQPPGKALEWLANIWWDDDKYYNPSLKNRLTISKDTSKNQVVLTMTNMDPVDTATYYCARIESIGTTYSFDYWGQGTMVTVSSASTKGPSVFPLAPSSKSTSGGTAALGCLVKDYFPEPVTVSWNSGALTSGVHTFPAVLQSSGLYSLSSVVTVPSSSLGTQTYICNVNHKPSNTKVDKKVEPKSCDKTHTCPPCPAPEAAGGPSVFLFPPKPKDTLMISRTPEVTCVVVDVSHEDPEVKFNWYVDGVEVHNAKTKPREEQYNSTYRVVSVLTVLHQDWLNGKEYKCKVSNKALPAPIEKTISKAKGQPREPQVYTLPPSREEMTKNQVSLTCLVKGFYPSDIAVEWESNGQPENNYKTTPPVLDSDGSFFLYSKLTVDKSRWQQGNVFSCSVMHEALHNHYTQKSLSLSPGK
light: B1 light with R228G
notes: DVD-Ig, outer hBDB-4G8.3 (VEGF), inner hBDI-9E8.4 (PDGF); IgG1 L234A, L235A / kappa
B7: 4G8.3-SL-9E8.4 DVD-Ig (PR-1564012) (bispecific antibody, human IgG1, kappa, L234A L235A)
heavy: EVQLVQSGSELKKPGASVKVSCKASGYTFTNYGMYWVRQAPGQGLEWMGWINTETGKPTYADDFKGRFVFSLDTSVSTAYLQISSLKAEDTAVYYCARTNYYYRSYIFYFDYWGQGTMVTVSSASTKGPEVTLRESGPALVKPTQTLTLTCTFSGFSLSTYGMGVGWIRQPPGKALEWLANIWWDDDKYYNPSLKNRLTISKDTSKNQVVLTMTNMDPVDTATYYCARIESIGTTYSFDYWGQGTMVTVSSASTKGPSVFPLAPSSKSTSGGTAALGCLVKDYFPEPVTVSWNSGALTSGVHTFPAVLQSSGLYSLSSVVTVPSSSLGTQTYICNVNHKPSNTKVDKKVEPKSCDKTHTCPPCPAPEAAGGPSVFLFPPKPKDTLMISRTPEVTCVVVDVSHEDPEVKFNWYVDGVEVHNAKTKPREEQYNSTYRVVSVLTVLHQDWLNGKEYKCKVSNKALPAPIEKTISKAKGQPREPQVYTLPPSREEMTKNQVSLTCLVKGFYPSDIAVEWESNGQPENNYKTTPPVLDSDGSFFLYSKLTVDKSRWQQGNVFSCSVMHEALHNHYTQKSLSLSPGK
light: B3 light with R231G
notes: as for B6
B8: 4G8.3-LS-9E8.4 DVD-Ig (PR-1564013) (bispecific antibody, human IgG1, kappa, L234A L235A)
heavy: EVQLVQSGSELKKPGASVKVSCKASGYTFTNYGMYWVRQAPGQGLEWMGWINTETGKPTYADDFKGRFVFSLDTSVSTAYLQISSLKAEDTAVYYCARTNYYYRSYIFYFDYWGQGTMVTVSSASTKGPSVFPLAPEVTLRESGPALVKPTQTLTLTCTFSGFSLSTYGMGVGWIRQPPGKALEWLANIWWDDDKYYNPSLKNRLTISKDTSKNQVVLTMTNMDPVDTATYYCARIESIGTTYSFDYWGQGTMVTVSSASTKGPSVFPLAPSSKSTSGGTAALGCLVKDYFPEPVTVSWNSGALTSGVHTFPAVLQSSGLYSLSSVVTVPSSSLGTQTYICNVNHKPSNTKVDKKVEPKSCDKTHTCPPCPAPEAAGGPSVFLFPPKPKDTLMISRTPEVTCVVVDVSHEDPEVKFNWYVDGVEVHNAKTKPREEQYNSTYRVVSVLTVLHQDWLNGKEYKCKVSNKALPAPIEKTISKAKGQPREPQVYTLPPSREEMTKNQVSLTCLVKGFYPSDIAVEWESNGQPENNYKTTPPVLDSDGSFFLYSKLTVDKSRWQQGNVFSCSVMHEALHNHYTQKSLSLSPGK
light: DTVLTQSPATLSLSPGERATLSCRASESVSTHMHWYQQKPGQAPRLLIYGASNLESGVPARFSGSGSGTDFTLTISSLEPEDFAVYFCQQSWNDPFTFGQGTKLEIKRTVAAPEFVLTQSPGTLSLSPGERATLSCERSSGDIGDSYVSWYQQKPGQAPRLVIYADDQRPSGIPDRFSGSGSGTDFTLTISRLEPEDFAVYYCQSYDINIDIVFGGGTKVEIKGTVAAPSVFIFPPSDEQLKSGTASVVCLLNNFYPREAKVQWKVDNALQSGNSQESVTEQDSKDSTYSLSSTLTLSKADYEKHKVYACEVTHQGLSSPVTKSFNRGEC
notes: as for B6

Molecular target: recombinant rat PDGF-BB (rat, UniProt Q05028 74-182)
Test: cell-based or functional assay

Chain of recombinant rat PDGF-BB (Q05028 74-182 limits assumed): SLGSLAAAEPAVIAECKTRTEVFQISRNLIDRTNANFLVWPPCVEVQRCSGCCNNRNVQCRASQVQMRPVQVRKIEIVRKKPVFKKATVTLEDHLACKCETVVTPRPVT

Binder	Potency IC50 (nM) ratPDGF-BB (NIH-3T3 proliferation) [nM]
B1	2.2
B2	1.51
B3	1.3
B4	0.994
B5	0.038

Molecular target: T1, recombinant cynomolgus PDGF-BB
Test: cell-based or functional assay

Binder	Potency IC50 (nM) cynoPDGF-BB (NIH-3T3 proliferation) [nM]
B1	0.139
B2	0.139
B3	0.142
B4	0.144
B5	0.035

Molecular target: recombinant murine PDGF-BB (mouse, UniProt P31240 82-190)
Test: cell-based or functional assay

Chain of recombinant murine PDGF-BB (P31240 82-190 limits assumed): as the sequence (Q05028 74-182 limits assumed) above, with V83I, V102I counted along it

Binder	Potency IC50 (nM) mPDGF-BB (NIH-3T3 proliferation) [nM]
B1	0.174
B2	0.134
B3	0.096
B4	0.15
B5	0.032

Molecular target: recombinant human PDGF-BB (human, UniProt P01127 82-190)
Test: cell-based or functional assay

Binder	Co-incubation Potency IC50 (nM) hPDGF-BB (NIH-3T3 proliferation, DVD-Ig pre-incubated with excess hVEGF165) [nM]
B1	0.051
B2	0.032
B3	0.047
B4	0.038
B5	0.04

Molecular target: T2, recombinant human VEGF165 (human, UniProt P15692 207-395)
T2 construct: also called hVEGF165; huVEGF-A165
Test: competition ELISA: DVD-Ig titrated against biotinylated hVEGF165 binding to coated hVEGFR2-Fc
Experimental: To identify molecules that could block the binding of hVEGF₁₆₅ to the hVEGF-R2 (KDR/Flk-1) receptor, a competition ELISA was performed. […] Plates were then washed four times with wash buffer (TBS, 0.05% Tween-20) and blocked with Superblock blocking buffer (Thermo Scientific, cat#37535). […] The pre-incubated sample/hVEGF₁₆₅ complex was added to the coated plate at 50 μL in duplicate and incubated for 30 minutes at 25° C. with shaking. Following incubation, plates were washed four times with wash buffer. Streptavidin-polyHRP-40 (Fitzgerald cal#65r-s104phrp) was diluted in assay diluent (10% Superblock containing 0.05% surfactamps) and added to plates (50 μL) for 45 minutes at 25° C. with shaking. Plates were washed four times with wash buffer and developed with the addition of Enhanced K-blue TMB substrate (Neogen cat#308177). The reaction was stopped with 2N sulfuric acid (VWR, cat# BDH3500-1) and the absorbance was read at 450 nm-570 nm. A decrease in observed optical density indicates the test molecule is blocking the hVEGF₁₆₅ binding to the hVEGF-R2-Fc. Data was analyzed using Softmax Pro 4.8 software and IC₅₀ values calculated using a sigmoidal dose response (variable slope) fit in GraphPad Prism 5.

T2 sequence (P15692 other isoform, or with tags, fused parts or gaps limits assumed): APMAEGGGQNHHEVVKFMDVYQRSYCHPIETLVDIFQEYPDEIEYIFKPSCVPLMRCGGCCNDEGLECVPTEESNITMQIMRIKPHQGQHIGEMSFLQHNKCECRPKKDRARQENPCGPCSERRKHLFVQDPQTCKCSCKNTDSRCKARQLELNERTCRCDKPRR

Binder	IC50 [pM]
B6	126
B7	86
B8	92

Molecular target: T2, recombinant human VEGF165
Test: cell-based or functional assay

Binder	HMVEC-d hVEGF165 Potency IC50 [pM]
B6	96
B8	60

Molecular target: recombinant human PDGF-BB (human, UniProt P01127 82-190)
Test: cell-based or functional assay
Remark: another data set of the same source

Binder	NIH-3T3 hPDGF-BB Potency IC50 [pM]
B7	365
B8	152
